In the DeepSol protein solubility set:

Experiment: soluble on expression in E. coli; label from the status in PepcDB or PDB records
With “MSLELMEEVDRTVHHMQDEAANFPDPADRASQEEEFSLELRARDRERKLIKKIDETLQLIEDEEYGWCDSCGVEIGIRRLEEGHHHHHH” the “soluble on expression in E. coli” value was “not soluble”.
In the case of “MSLELTRYEIIKILMEYVTDEIVVCNIGIPSKELFKINDREKNFYMLGSMGLSSSIGHGLALSVNEKVIAIDGDGSVLMNMGSLATIGKTTPKDFLLLIVDNCAYGSTGNQETHSTCTDLYQVSKACGIDSIGVFNEEQLRDAVKLALSESGTKVIVAKARPHNENVPNINLVPTEIKHRFMNAIKKEGHHHHHH”, the “soluble on expression in E. coli” value is reported as “not soluble”.
In the case of “MSLENKETTTTTTTTNNGSDKKKRSLKIDLHTHILPKNWPNLKEKYGYGGWVSLDHHCSCKAKMMIDGKFFREIDSNCWDPDVRIQELNRDDVDIQVLSTVPVMFGYWAKPQDALDLAQYLNDHIAQVVSENPKRFIGLGSLPMQCTESSIQELRRCILELGLPGIQIGSNVNGKNLDDPSLFPIFEECEKLGAAVFIHPWEMVGKDRMPQYWLPWLVGMPAETCLAICSMIFGGVFQRLPNLKVCFAHGGGSFPFTIGRIEHGFNARPDLCAVVNPINPREYIGKFWVDSLVHDEEALKFLVNLMGEKKVTLGTDYPFPLGELVPGQLIESIKEFSETTKENLLGGNALEFLGLDPNKYLEGHHHHHH”, the “soluble on expression in E. coli” value is reported as “soluble”.
For “MSLEQDKYLTVAAITKYIEKKFEVDPYMKQVFVRGEISNLKQPASGHLYFTVKDEFAMLRSVMFHKAVQKIGFVPEDGMNVLVTGRIGVFTKAGRYQFYAEHMEPDGVGALYIQLEQLKAQLEKEGLFAETHKKVLPSFPSKVAVVTSKTGAAVRDILTTIHRRMPSVEVIVYPTIVQGEKAAQKIVENIGKINQRNDIDVMIIGRGGGSLEELWAFNEEPVVRAVYDSDVPVISAVGHETDFALSDFSADVRAATPTAAAELAVPDYRDLEERLAERKYRLLAVTRQALERKERSLEQLKQHLILNGPKHQLEQQMERTDYFSERLNNAFSKQIFVKQTAFDRLNDRLHYYHPNKEIELQKEQMTLHLQALDKAMKQLLKDKQQSFFRQVDALEHLSPLSLLKRGFGVTYKENTLVKSVQELEVGDNIQVKMQGGHIDALITAKEEDISGNEGHHHHHH”, the “soluble on expression in E. coli” value was “soluble”.
In the case of “MSLEQLVLAIDLGTSGCKCALVSMEVDIRSWAFHGVPLHVSGLSAEQEPEDWWNAFMLGAHELLGADPLRRRQVVAICCSTQSEGTVCVDRNGAAIGRALLWLDKRGADSIKQRMGGGWCNLGGYGPLKLWRSLRLTGGVASLSGMDSAGHMAYILDHDPARYEKTHKFLNVLDYMNMRLSGRYCATGDSMLTAWITDNRDPHRIRYDDGLIRALGIDAGKLPELVGSTEVIGTLKPELADVLGLPRSTPVVAGAVDTSAVAVGATVRDFAPHLYLGTSSWVGAHVPFKKSSVRHHIAAVPSAVKGRYLAMAMQSAAGANLSFLRDKVLYHPDELLSDEQQPDVYALLDRIAARVPPGSRGLIYTPWLCGERSPVGDPSLRAGLINLKLEHSREDIIRAFMEGVAHNTRWMLEPFSRFIGQSSEIIVATGGGAQSDVWCQIMADVCGRVIQQPHNPIQTNARGAAFIAAVALGKLQFNDLPTLQRPHRLYEPSRSTRNLYDNRFATFKEVRKRLAPLYRRLNPSQETTEGHHHHHH”, the “soluble on expression in E. coli” value is reported as “not soluble”.
With “MSLEWTKLTGTLKPDKDVKRGMLAIQPLGKGQFQLDVVSLFPSDTWDNGKSVFRADIMQNLKEYAPDFIRFPGGCIVHGVNEATMYHWKKTIGPIENRPGQWSKWAPYYRTDGIGYHEFYELCEYLGADAMYVIPTGMICTGWVKQSSPWNFIQPDVDLDAYIQDALDAIEYAIGPETSKWGALRVKNGHPKPFPLKYIEIGNEDFGPVYWERYEKIYQALHRQYPDLIYIANSIIGKENDDKRIDIAKFVNPKNVKVFDEHHYQPVEWACKQHYRFDNYERGIADLFVGELGIDGKYPYNLLASGAVRMSLERNGDLNPLLAERPVMRHWDFSEHRQLHSMLINGVDCSIRTSFYYLSKMFRDHTFDVCLDAGIQGMKGLQNVFVTMGYDSESKEYILKLINLRKQEVVLQTAVKGFGKKIQAQKITLSLEPGKNNTPEMPDAVKPVQSTVTLDLNKDLQLEASSMIVYRFKEGHHHHHH” the “soluble on expression in E. coli” value was “not soluble”.
With “MSLEYFDMRKMSVNLWRNAAGETREICTFPPAKRDFYWRASITSIAANGEFSLFPGMERIVTLLEGGEMFLESADRFNHTLKPLQPFSFAADLVVKAKLTAGQMSMDFNIMTRLDVCKAKVRIAERTFTTFGSRGGVVFVINGAWQLGDKLLTTDQGACWFDGRHTLRLLQPQGKLLFSEINWLAGHSEGHHHHHH” the “soluble on expression in E. coli” value was “not soluble”.
